± gives the uncertainty stated by the source.
Assay: protein stability index of a GFP-peptide fusion (yeast GPS) (PSI 1-4); higher = more stable; sorted into four equal gates, so the index is relative within each strain
Summary of the method: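 Tiled yeast protein peptides of 17 residues were each joined downstream of GFP, on plasmids that also express Cherry. The pooled library was maintained in yeast, and mid-log cultures in leucine-free medium were sorted into four equal gates on the GFP/Cherry ratio. Plasmids from every gate were amplified by PCR and sequenced on Illumina, with barcodes linking reads to strains. The protein stability index of a peptide is its gate-number-weighted read frequency summed over the gates.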

| Sequence | protein stability index (doa10∆) | protein stability index (pdr5∆) | protein stability index (san1∆) | protein stability index (ubr1∆) |
| --- | --- | --- | --- | --- |
| KIMNVTTDSLTKVLQAD [YMR129W/POM152] | 3.25 ± 0.068 | 3.05 ± 0.068 | 3.12 ± 0.04 | 3.23 ± 0.064 |
| LPTTVVSNPGDNPPPAD [MED2] | 3.02 ± 0.046 | 2.95 ± 0.052 | 3.04 ± 0.051 | 3.11 ± 0.037 |
| GLARKFHNMLQTLYTGD [SSN3] | 2.91 ± 0.24 | 3.25 ± 0.1 | 3.01 ± 0.077 | 2.79 ± 0.16 |
| NQKTSAVAALTEVRAED [RPL8A] | 2.92 ± 0.082 | 2.94 ± 0.071 | 3.18 ± 0.058 | 2.68 ± 0.087 |
| KLLSLLRSKTSAGRIES [SIR4] | 2.11 ± 0.082 | 2.17 ± 0.087 | 2.42 ± 0.15 | 2.36 ± 0.12 |
| ANPKKLALMTAHSLSPK [CDC53] | 2.43 ± 0.052 | 2.78 ± 0.054 | 2.72 ± 0.057 | 2.32 ± 0.036 |
| FKYVEDRFPLKLREPVA [ITC1] | 2.42 ± 0.094 | – | 1.81 ± 0.26 | 2.73 ± 0.093 |
| TWRTQLAASEIGISIVG [ECM29] | 1.72 ± 0.065 | 2 ± 0.083 | 1.68 ± 0.071 | 1.88 ± 0.037 |
| KLFNRIVERETNWIIYP [CSN12] | 2.81 ± 0.19 | 3.48 ± 0.24 | 2.85 ± 0.21 | – |
| AADTSIVEQDKSMELFY [YJL039C/NUP192] | 2.07 ± 0.11 | 2.61 ± 0.13 | 2.63 ± 0.084 | 2.73 ± 0.2 |
| NKGLVVSPYDYNHKRVS [DIB1] | 2.39 ± 0.066 | 2.41 ± 0.066 | 1.61 ± 0.11 | 2.33 ± 0.087 |
| NASQMGNTGSGGYDNAW [RPB3] | 3.36 ± 0.28 | 3.31 ± 0.17 | 3.52 ± 0.2 | 2.5 ± 0.15 |
| RKRHQRALKVRNAQAQR [RPS6A] | 3.04 ± 0.14 | 2.96 ± 0.1 | 2.73 ± 0.073 | 2.96 ± 0.13 |
| DEQDDDNVNSTTGSIFE [BRN1] | 2.88 ± 0.16 | 2.92 ± 0.13 | 2.7 ± 0.15 | 2.85 ± 0.066 |
| APLNLEIPAYEFDGDKV [RIP1] | 2.6 ± 0.099 | 2.54 ± 0.096 | 2.55 ± 0.077 | 2.72 ± 0.077 |
| PSLLLQKDQDGRIPLHW [NAS6] | 3.28 ± 0.28 | 3.38 ± 0.21 | – | – |
| EVYEALKEVLYNDSATS [RPN2] | 3.34 ± 0.18 | 3.45 ± 0.15 | – | 3.46 ± 0.08 |
| IDSTDHIRKASSKKSKR [LRP1] | 2.15 ± 0.046 | 1.99 ± 0.039 | 1.83 ± 0.058 | 2.14 ± 0.038 |
| VDVLVISSHSHPVSLIS [RRP42] | 1.5 ± 0.046 | 1.53 ± 0.048 | 1.57 ± 0.062 | 1.67 ± 0.03 |
| GGKSVGFGLVYNSVAEA [RPS24A] | 3.11 ± 0.052 | 3.29 ± 0.05 | 3.15 ± 0.035 | 2.84 ± 0.054 |
| GKIVSQRGKWNLKYLDN [RGR1] | 2.28 ± 0.074 | 2.64 ± 0.068 | 2.37 ± 0.091 | 2.17 ± 0.06 |
| DKKHFNNKNKRVTGAGG [RPC53] | 3.15 ± 0.24 | 2.53 ± 0.17 | 3.16 ± 0.27 | 3.31 ± 0.075 |
| LIETVFVKNIRMLSFED [RPN9] | 2.19 ± 0.044 | 1.89 ± 0.05 | 1.78 ± 0.066 | 1.97 ± 0.041 |
| AKIDVMLTIARLGFFYN [RPN7] | 2.44 ± 0.15 | 2.89 ± 0.14 | 3.42 ± 0.14 | 3.14 ± 0.094 |
| IFNSGKMIILDKLLKRL [ISW2] | 2.17 ± 0.077 | 1.93 ± 0.055 | 1.55 ± 0.1 | 2.17 ± 0.046 |
| NEKFEIELLSLDDDSIV [SRB4] | 2.58 ± 0.096 | 3.07 ± 0.093 | 2.72 ± 0.081 | 3.1 ± 0.1 |
| VTQSNILSQQFDKIIKI [SRB8] | 2.72 ± 0.07 | 2.96 ± 0.071 | 2.95 ± 0.056 | 2.89 ± 0.045 |
